Measured values reported in patent US20230129812A1 (ACCELERON PHARMA, published 2023).
Where two headings read alike, the source gives them in different places.

Columns and labels:
GDF11 [1] = molecular target: T1, GDF11 (UniProt O95390 299-407); assay: SPR (Biacore); receptor-Fc captured by anti-Fc antibody, ligand injected; † Very low signal
T1 construct: also called BMP11
T1 sequence (looked up): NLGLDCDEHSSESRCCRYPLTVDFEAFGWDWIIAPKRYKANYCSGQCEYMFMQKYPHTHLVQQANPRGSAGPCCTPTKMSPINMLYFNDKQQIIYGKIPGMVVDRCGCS
Protocol: (§1) A Biacore™-based binding assay was used to compare ligand binding selectivity of the ActRIIA-Fc:ALK4-Fc heterodimeric complex described above with that of ActRIIA-Fc and ALK4-Fc homodimeric complexes. The ActRIIA-Fc:ALK4-Fc heterodimer, ActRIIA-Fc homodimer, and ALK4-Fc homodimer were independently captured onto the system using an anti-Fc antibody. Ligands were injected and allowed to flow over the captured receptor protein. Results are summarized in Table 14 below, in which ligand off-rates (kd) most indicative of effective ligand traps are denoted in bold.

activin AB = molecular target: T2, activin AB (UniProt P08476 311-426; P09529 293-407); assay: SPR (Biacore); receptor-Fc captured by anti-Fc antibody, ligand injected
T2 sequence (looked up) 1: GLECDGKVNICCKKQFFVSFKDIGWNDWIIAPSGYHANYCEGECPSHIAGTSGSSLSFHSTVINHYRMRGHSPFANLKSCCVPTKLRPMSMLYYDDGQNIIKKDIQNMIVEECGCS
T2 sequence (looked up) 2: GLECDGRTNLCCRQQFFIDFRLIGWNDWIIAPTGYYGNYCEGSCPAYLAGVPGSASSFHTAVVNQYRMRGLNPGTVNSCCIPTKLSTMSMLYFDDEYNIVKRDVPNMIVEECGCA
Protocol: as §1

GDF11 [2] = molecular target: T1, GDF11; assay: as above
Protocol: as §1

activin AC = molecular target: T3, activin AC (UniProt P08476 311-426; P55103 237-352); assay: as above
T3 sequence (looked up) 1: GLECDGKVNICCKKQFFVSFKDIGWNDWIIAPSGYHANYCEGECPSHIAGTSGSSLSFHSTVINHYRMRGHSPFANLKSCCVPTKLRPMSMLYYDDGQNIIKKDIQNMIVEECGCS
T3 sequence (looked up) 2: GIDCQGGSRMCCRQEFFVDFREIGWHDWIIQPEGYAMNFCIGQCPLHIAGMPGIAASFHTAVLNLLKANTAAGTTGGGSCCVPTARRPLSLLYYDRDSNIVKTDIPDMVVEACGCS
Protocol: as §1

BMP7 = molecular target: T4, BMP7 (UniProt P18075 293-431); assay: as above
T4 sequence (looked up): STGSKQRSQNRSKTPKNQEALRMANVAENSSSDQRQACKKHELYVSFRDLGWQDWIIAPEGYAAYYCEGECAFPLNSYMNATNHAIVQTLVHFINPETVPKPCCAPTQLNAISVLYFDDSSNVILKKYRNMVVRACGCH
Protocol: as §1

BMP6 = molecular target: T5, BMP6 (UniProt P22004 375-513, limits assumed); assay: as above
T5 sequence (looked up): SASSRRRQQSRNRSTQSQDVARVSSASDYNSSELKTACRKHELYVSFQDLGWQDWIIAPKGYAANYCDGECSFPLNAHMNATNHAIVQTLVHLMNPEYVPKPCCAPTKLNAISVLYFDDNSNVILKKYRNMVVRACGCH
Protocol: as §1

BMP10 = molecular target: T6, BMP10 (UniProt O95393 317-424); assay: as above
T6 sequence (looked up): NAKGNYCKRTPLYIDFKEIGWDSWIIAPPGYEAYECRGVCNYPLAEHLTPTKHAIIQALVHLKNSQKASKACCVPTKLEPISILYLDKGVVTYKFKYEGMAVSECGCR
Protocol: as §1

activin A [3] = molecular target: T7, activin A (UniProt P08476 311-426); assay: as above
T7 construct: also called ActA
T7 sequence (looked up): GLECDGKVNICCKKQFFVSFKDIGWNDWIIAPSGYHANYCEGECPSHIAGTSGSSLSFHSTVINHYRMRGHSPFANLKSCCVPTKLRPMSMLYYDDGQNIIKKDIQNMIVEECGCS
Protocol: as §1

GDF11 [4] = molecular target: T1, GDF11; assay: SPR (Biacore); receptor-Fc captured by anti-Fc antibody, ligand injected; † Very low signal; remark: listed apart in the source
Protocol: as §1

GDF11 [5] = molecular target: T1, GDF11; assay: SPR (Biacore); receptor-Fc captured by anti-Fc antibody, ligand injected; remark: listed apart in the source
Protocol: (§2) A Biacore™-based binding assay was used to compare ligand binding selectivity of the ALK4-Fc:ActRIIB-Fc heterodimeric complex described above with that of ActRIIB-Fc and ALK4-Fc homodimer complexes. The ALK4-Fc:ActRIeB-Fc heterodimer, […], and ALK4-Fc homodimer were independently captured onto the system using an anti-Fc antibody. Ligands were injected and allowed to flow over the captured receptor protein. Results are summarized in Table 13 below, in which ligand off-rates (kd) most indicative of effective polypeptides are denoted in bold.

activin B = molecular target: T8, activin B (UniProt P09529 293-407); assay: as above
T8 sequence (looked up): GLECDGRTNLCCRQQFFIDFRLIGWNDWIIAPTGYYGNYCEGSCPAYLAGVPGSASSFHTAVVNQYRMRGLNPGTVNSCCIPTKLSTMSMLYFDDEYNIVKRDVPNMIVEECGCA
Protocol: as §2

activin A [6] = molecular target: T7, activin A; assay: as above; remark: listed apart in the source
Protocol: as §2

Kd (GDF11 [1]): 0.97 nM | Kd (activin AB): 2 nM | koff (activin AB): 0.0036 s⁻¹ | kon (activin AB): 1.8e+06 M⁻¹ s⁻¹ | koff (GDF11 [2]): 0.0048 s⁻¹ | kon (GDF11 [2]): 5e+06 M⁻¹ s⁻¹ | binding result (activin AC): no binding | binding result (BMP7): no binding | binding result (BMP6): no binding | binding result (BMP10): no binding | Kd (activin A [3]): 20 nM | koff (activin A [3]): 0.012 s⁻¹ | kon (activin A [3]): 580000 M⁻¹ s⁻¹ | Kd (GDF11 [4]): 0.97 nM | koff (GDF11 [5]): 0.0048 s⁻¹ | kon (GDF11 [5]): 5e+06 M⁻¹ s⁻¹ | binding result (activin B): no binding | Kd (activin A [6]): 20 nM | koff (activin A [6]): 0.012 s⁻¹ | kon (activin A [6]): 580000 M⁻¹ s⁻¹
B1: ALK4-Fc homodimer (Fc fusion, not shown: a dimerising Fc or GST)
chain: SGPRGVQALLCACTSCLQANYTCETDGACMVSIFNLDGMEHHVRTCIPKVELVPAGKPFYCLSSEDLRNTHCCYTDYCNRIDLRVPSGHLKEPEHPSMWGPVE
